Source: ChEMBL document CHEMBL3600307, “Synthesis, kinetic mechanism and docking studies of vanillin derivatives as inhibitors of mushroom tyrosinase” (Bioorg Med Chem, 2015)
Each block holds one molecule with its values, some of them ahead of it. The source made the active and inactive calls. The calls are words filed in the database; no cut-off is given here.

Legend:
Tyrosinase [1] = target: T1, Tyrosinase (Agaricus bisporus, UniProt O42713)
T1 sequence (O42713 whole entry): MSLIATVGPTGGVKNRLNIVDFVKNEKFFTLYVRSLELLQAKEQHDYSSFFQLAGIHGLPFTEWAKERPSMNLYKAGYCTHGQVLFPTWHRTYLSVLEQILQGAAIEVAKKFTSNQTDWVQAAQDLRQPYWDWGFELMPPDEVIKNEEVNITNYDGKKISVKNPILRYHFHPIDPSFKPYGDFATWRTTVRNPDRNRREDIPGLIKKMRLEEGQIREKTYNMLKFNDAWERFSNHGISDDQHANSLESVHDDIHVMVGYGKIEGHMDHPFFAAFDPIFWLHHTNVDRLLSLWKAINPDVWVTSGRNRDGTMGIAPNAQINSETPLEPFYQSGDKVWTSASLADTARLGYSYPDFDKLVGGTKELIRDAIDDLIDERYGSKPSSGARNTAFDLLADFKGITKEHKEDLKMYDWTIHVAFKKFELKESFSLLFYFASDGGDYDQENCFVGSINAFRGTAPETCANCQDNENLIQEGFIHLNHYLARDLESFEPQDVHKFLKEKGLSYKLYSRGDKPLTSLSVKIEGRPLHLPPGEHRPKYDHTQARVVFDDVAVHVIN

[2] = target: T2, Tyrosinase (Agaricus bisporus) (UniProt O42713); experiment: Reversible inhibition of mushroom tyrosinase using L-DOPA as substrate at 10.6 to 342 uM
T2 sequence (whole entry): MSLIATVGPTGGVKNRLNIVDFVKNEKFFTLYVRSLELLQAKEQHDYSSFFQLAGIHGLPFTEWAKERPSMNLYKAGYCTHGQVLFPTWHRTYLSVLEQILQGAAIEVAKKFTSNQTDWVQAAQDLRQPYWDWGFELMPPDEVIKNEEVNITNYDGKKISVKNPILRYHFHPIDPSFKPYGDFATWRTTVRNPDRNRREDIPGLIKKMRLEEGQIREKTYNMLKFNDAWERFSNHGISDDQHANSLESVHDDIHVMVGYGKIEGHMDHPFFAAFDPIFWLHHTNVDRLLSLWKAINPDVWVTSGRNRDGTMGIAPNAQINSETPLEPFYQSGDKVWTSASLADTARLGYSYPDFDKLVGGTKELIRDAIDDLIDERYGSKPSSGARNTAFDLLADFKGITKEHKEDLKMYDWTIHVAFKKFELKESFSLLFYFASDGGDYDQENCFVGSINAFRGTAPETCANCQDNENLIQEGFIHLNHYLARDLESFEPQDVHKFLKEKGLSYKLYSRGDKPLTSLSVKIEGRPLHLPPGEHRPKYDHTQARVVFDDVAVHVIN

Tyrosinase [3] = target: T1, Tyrosinase; remark: listed apart in the source
Tyrosinase [4] = target: T1, Tyrosinase; remark: listed apart in the source
[5] = target: T2, Tyrosinase (Agaricus bisporus); conditions: 8.75 to 140 uM
L929 = experiment: Cytotoxicity against mouse L929 cells assessed as decrease in cell viability after 24 hrs by MTT assay; format: cell-based; conditions: l929, 24 h
HaCaT = experiment: Cytotoxicity against human HaCaT cells assessed as decrease in cell viability after 24 hrs by MTT assay; format: cell-based
[6] = substrate: COc1cc(C=O)ccc1OC(=O)COC(=O)/C=C/c1ccc(Cl)cc1; conditions: Agaricus bisporus; 8.3 uM
[7] = substrate: COc1cc(C=O)ccc1OC(=O)COC(=O)/C=C/c1ccc(Cl)cc1; conditions: Agaricus bisporus; 16.6 uM
[8] = compound: COc1cc(C=O)ccc1OC(=O)CN1CCN(C)CC1; experiment: Non competitive inhibition of mushroom tyrosinase using L-DOPA as substrate assessed as enzyme Km at 85.5 uM preincubated for 10 mins followed by substrate addition measured after 20 mins by Lineweaver-Burk plot analysis (reference value: […] to […] mM); conditions: Agaricus bisporus
[9] = substrate: COc1cc(C=O)ccc1OC(=O)COC(=O)/C=C/c1ccc(Cl)cc1; conditions: Agaricus bisporus; 8.3 uM; remark: listed apart in the source
[10] = compound: COc1cc(C=O)ccc1OC(=O)CN1CCN(C)CC1; experiment: Non competitive inhibition of mushroom tyrosinase using L-DOPA as substrate assessed as enzyme Vmax at 85.5 uM preincubated for 10 mins followed by substrate addition measured after 20 mins by Lineweaver-Burk plot analysis (reference value: […] x 10^-4 to 2.66 x 10^-4 deltaA/s); conditions: Agaricus bisporus
[11] = substrate: COc1cc(C=O)ccc1OC(=O)COC(=O)c1ccc(O)cc1O; conditions: Agaricus bisporus; 72.2 uM
[12] = substrate: COc1cc(C=O)ccc1OC(=O)COC(=O)/C=C/c1ccc(O)cc1; conditions: Agaricus bisporus; 17.5 uM
[13] = compound: COc1cc(C=O)ccc1OC(=O)CN1CCN(C)CC1; experiment: Non competitive inhibition of mushroom tyrosinase using L-DOPA as substrate assessed as enzyme Km at 21.37 uM preincubated for 10 mins followed by substrate addition measured after 20 mins by Lineweaver-Burk plot analysis (reference value: […] to […] mM); conditions: Agaricus bisporus
[14] = substrate: COc1cc(C=O)ccc1OC(=O)COC(=O)/C=C/c1ccc(Cl)cc1; conditions: Agaricus bisporus; 16.6 uM; remark: listed apart in the source
[15] = compound: COc1cc(C=O)ccc1OC(=O)CN1CCN(C)CC1; experiment: Non competitive inhibition of mushroom tyrosinase using L-DOPA as substrate assessed as enzyme Vmax at 342 uM preincubated for 10 mins followed by substrate addition measured after 20 mins by Lineweaver-Burk plot analysis (reference value: […] x 10^-4 to 2.66 x 10^-4 deltaA/s); conditions: Agaricus bisporus
[16] = substrate: COc1cc(C=O)ccc1OC(=O)COC(=O)c1ccc(O)cc1O; conditions: Agaricus bisporus; 144.5 uM
[17] = substrate: COc1cc(C=O)ccc1OC(=O)COC(=O)c1ccc(O)cc1O; conditions: Agaricus bisporus; 72.2 uM; remark: listed apart in the source
[18] = compound: COc1cc(C=O)ccc1OC(=O)CN1CCN(C)CC1; experiment: Non competitive inhibition of mushroom tyrosinase using L-DOPA as substrate assessed as enzyme Vmax at 10.68 uM preincubated for 10 mins followed by substrate addition measured after 20 mins by Lineweaver-Burk plot analysis (reference value: […] x 10^-4 to 2.66 x 10^-4 deltaA/s); conditions: Agaricus bisporus
[19] = substrate: COc1cc(C=O)ccc1OC(=O)COC(=O)/C=C/c1ccc(O)cc1; conditions: Agaricus bisporus; 17.5 uM; remark: listed apart in the source
[20] = substrate: COc1cc(C=O)ccc1OC(=O)COC(=O)/C=C/c1ccc(O)cc1; conditions: Agaricus bisporus; 8.75 uM
[21] = compound: COc1cc(C=O)ccc1OC(=O)CN1CCN(C)CC1; experiment: Non competitive inhibition of mushroom tyrosinase using L-DOPA as substrate assessed as enzyme Vmax at 42.75 uM preincubated for 10 mins followed by substrate addition measured after 20 mins by Lineweaver-Burk plot analysis (reference value: […] x 10^-4 to 2.66 x 10^-4 deltaA/s); conditions: Agaricus bisporus
[22] = substrate: COc1cc(C=O)ccc1OC(=O)COC(=O)/C=C/c1ccc(Cl)cc1; conditions: Agaricus bisporus; 33.3 uM
[23] = substrate: COc1cc(C=O)ccc1OC(=O)COC(=O)/C=C/c1ccc(O)cc1; conditions: Agaricus bisporus; 8.75 uM; remark: listed apart in the source
[24] = compound: COc1cc(C=O)ccc1OC(=O)CN1CCN(C)CC1; experiment: Non competitive inhibition of mushroom tyrosinase using L-DOPA as substrate assessed as enzyme Km at 42.75 uM preincubated for 10 mins followed by substrate addition measured after 20 mins by Lineweaver-Burk plot analysis (reference value: […] to […] mM); conditions: Agaricus bisporus
[25] = compound: COc1cc(C=O)ccc1OC(=O)CN1CCN(C)CC1; experiment: Non competitive inhibition of mushroom tyrosinase using L-DOPA as substrate assessed as enzyme Vmax at 21.37 uM preincubated for 10 mins followed by substrate addition measured after 20 mins by Lineweaver-Burk plot analysis (reference value: […] x 10^-4 to 2.66 x 10^-4 deltaA/s); conditions: Agaricus bisporus
[26] = compound: COc1cc(C=O)ccc1OC(=O)CN1CCN(C)CC1; experiment: Non competitive inhibition of mushroom tyrosinase using L-DOPA as substrate assessed as enzyme Km at 342 uM preincubated for 10 mins followed by substrate addition measured after 20 mins by Lineweaver-Burk plot analysis (reference value: […] to […] mM); conditions: Agaricus bisporus
[27] = substrate: COc1cc(C=O)ccc1OC(=O)COC(=O)c1ccc(O)cc1O; conditions: Agaricus bisporus; 289 uM
[28] = substrate: COc1cc(C=O)ccc1OC(=O)COC(=O)c1ccc(O)cc1O; conditions: Agaricus bisporus; 144.5 uM; remark: listed apart in the source
[29] = substrate: COc1cc(C=O)ccc1OC(=O)COC(=O)c1ccc(O)cc1O; conditions: Agaricus bisporus; 289 uM; remark: listed apart in the source
[30] = compound: COc1cc(C=O)ccc1OC(=O)CN1CCN(C)CC1; experiment: Non competitive inhibition of mushroom tyrosinase using L-DOPA as substrate assessed as enzyme Km at 10.68 uM preincubated for 10 mins followed by substrate addition measured after 20 mins by Lineweaver-Burk plot analysis (reference value: […] to […] mM); conditions: Agaricus bisporus

inhibition [2]: Active
Ki (Tyrosinase [3]): 60 µM
IC50 (Tyrosinase [1]): 21.6 µM
Molecule: COc1cc(C=O)ccc1OC(=O)CN1CCN(C)CC1

IC50 (Tyrosinase [1]): 78.9 µM
Molecule: COc1cc(C=O)ccc1OC(=O)CCl

IC50 (Tyrosinase [1]): 201 µM
Molecule: COc1cc(C=O)ccc1OC(=O)COC(=O)c1ccc(O)cc1

Ki (Tyrosinase [4]): 205 µM
Ki (Tyrosinase [3]): 65 µM
IC50 (Tyrosinase [1]): 42.6 µM
Molecule: COc1cc(C=O)ccc1OC(=O)COC(=O)c1ccc(O)cc1O

Continued, molecule first:

Molecule: COc1cc(C=O)ccc1OC(=O)CN1CCN(c2ccccc2)CC1
IC50 (Tyrosinase [1]): 101 µM

Molecule: COc1cc(C=O)ccc1OC(=O)COC(=O)c1cc(O)cc(O)c1
IC50 (Tyrosinase [1]): 59.8 µM

Molecule: COc1cc(C=O)ccc1OC(=O)COC(=O)c1ccc(O)c(O)c1
IC50 (Tyrosinase [1]): 157 µM

Molecule: COc1cc(C=O)ccc1OC(=O)COC(=O)/C=C/c1ccc(O)cc1
inhibition [5]: Active
Ki (Tyrosinase [4]): 53 µM
Ki (Tyrosinase [3]): 13 µM
IC50 (Tyrosinase [1]): 16.1 µM
Activity (L929): Dose-dependent effect
Activity (HaCaT): Dose-dependent effect

Molecule: COc1cc(C=O)ccc1OC(=O)COC(=O)/C=C/c1ccc(Cl)cc1
Ki (Tyrosinase [4]): 100 µM
Ki (Tyrosinase [3]): 41 µM
IC50 (Tyrosinase [1]): 30.9 µM

B1: Tyrosinase (Agaricus bisporus), O42713 (protein)
chain: MSLIATVGPTGGVKNRLNIVDFVKNEKFFTLYVRSLELLQAKEQHDYSSFFQLAGIHGLPFTEWAKERPSMNLYKAGYCTHGQVLFPTWHRTYLSVLEQILQGAAIEVAKKFTSNQTDWVQAAQDLRQPYWDWGFELMPPDEVIKNEEVNITNYDGKKISVKNPILRYHFHPIDPSFKPYGDFATWRTTVRNPDRNRREDIPGLIKKMRLEEGQIREKTYNMLKFNDAWERFSNHGISDDQHANSLESVHDDIHVMVGYGKIEGHMDHPFFAAFDPIFWLHHTNVDRLLSLWKAINPDVWVTSGRNRDGTMGIAPNAQINSETPLEPFYQSGDKVWTSASLADTARLGYSYPDFDKLVGGTKELIRDAIDDLIDERYGSKPSSGARNTAFDLLADFKGITKEHKEDLKMYDWTIHVAFKKFELKESFSLLFYFASDGGDYDQENCFVGSINAFRGTAPETCANCQDNENLIQEGFIHLNHYLARDLESFEPQDVHKFLKEKGLSYKLYSRGDKPLTSLSVKIEGRPLHLPPGEHRPKYDHTQARVVFDDVAVHVIN
Vmax (10'-4deltaA/s) [6]: 2.22
Km [7]: 1000 µM
Km [8]: 400 µM
Km [9]: 900 µM
Vmax (10'-5deltaA/s) [10]: 7.14
Vmax (10'-4deltaA/s) [11]: 2
Km [12]: 1530 µM
Km [13]: 400 µM
Vmax (10'-4deltaA/s) [14]: 1.96
Vmax (10'-5deltaA/s) [15]: 2.85
Km [16]: 1000 µM
Km [17]: 830 µM
Vmax (10'-4deltaA/s) [18]: 1.66
Vmax (10'-4deltaA/s) [19]: 2
Km [20]: 1330 µM
Vmax (10'-4deltaA/s) [21]: 1.17
Vmax (10'-4deltaA/s) [22]: 1.85
Vmax (10'-4deltaA/s) [23]: 2.22
Km [24]: 400 µM
Vmax (10'-4deltaA/s) [25]: 1.42
Km [26]: 400 µM
Vmax (10'-4deltaA/s) [27]: 1.05
Vmax (10'-4deltaA/s) [28]: 1.53
Km [29]: 1250 µM
Km [30]: 400 µM
